Consider 1 molecule from patent US9549967B2, “Regulation of sodium channels by PLUNC proteins” (The University of North Carolina at Chapel Hill, priority 2009, dated 2017).

Common to all, as to format: cell-based
Assay [1] concerns the target T1, CFTR (Homo sapiens, UniProt P13569).
T1 construct: expressed in transfected cells; host or cells: Xenopus laevis oocytes
Description: CFTR activity in Xenopus oocytes co-expressing CFTR and β2 adrenergic receptor. Conditions: after 10 μM isoproterenol. How it is done: Oocyte studies. Xenopus laevis oocytes were harvested and injected as described (Donaldson, et al., J. Biol. Chem. 277:8338 (2002)). Defolliculated healthy stage V-VI oocytes were injected with 0.3 ng of cRNA of each ENaC subunit. Injected oocytes were kept in modified Barth's saline (in mM: 88 NaCl, 1 KCl, 2.4 NaHCO3, 0.3 Ca(NO3)2, 0.41 CaCl2, 0.82 MgSO4, and 15 HEPES, adjusted to pH 7.35 with Tris). Oocytes were studied 24 hr after injection using the two electrode voltage clamp technique as previously described (Donaldson, et al., J. Biol. Chem. 277:8338 (2002)). Oocytes were clamped at a holding potential of […]. The change in amiloride-sensitive whole cell current as an indicator of ENaC activity was determined by subtracting the corresponding current value measured in the presence of 10 μM amiloride from that measured before the application of amiloride.
In both cases, we co-expressed CFTR with the β2 adrenergic receptor (β2AR) which can be stimulated with isoproterenol to raise cAMP and stimulate CFTR (Uezono et al., Receptors Channels 1:233 (1993)).

The test system of assay [2] is serine proteases. Description: Endogenous protease activity (BGAR-MCA cleavage) on mucosal surfaces of human bronchial epithelial cultures. As for the experimental part: For cell-free assays, reactions were carried out in 50 μl Ringer in a 96 well plate format with 100 μM BGAR-MCA. To measure endogenous protease activity in human bronchial epithelial cultures, 30 μl Ringer with 100 μM BGAR-MCA were placed directly onto the mucosal surfaces of human bronchial epithelial cultures grown on 12 mm T-clear inserts and the cultures were assayed in 12 well plates.

The target in assay [3] is T2, αENaC (Rattus norvegicus, UniProt P37089).
T2 construct: expressed in transfected cells; host or cells: Xenopus oocytes
T2 sequence (P37089 1-698): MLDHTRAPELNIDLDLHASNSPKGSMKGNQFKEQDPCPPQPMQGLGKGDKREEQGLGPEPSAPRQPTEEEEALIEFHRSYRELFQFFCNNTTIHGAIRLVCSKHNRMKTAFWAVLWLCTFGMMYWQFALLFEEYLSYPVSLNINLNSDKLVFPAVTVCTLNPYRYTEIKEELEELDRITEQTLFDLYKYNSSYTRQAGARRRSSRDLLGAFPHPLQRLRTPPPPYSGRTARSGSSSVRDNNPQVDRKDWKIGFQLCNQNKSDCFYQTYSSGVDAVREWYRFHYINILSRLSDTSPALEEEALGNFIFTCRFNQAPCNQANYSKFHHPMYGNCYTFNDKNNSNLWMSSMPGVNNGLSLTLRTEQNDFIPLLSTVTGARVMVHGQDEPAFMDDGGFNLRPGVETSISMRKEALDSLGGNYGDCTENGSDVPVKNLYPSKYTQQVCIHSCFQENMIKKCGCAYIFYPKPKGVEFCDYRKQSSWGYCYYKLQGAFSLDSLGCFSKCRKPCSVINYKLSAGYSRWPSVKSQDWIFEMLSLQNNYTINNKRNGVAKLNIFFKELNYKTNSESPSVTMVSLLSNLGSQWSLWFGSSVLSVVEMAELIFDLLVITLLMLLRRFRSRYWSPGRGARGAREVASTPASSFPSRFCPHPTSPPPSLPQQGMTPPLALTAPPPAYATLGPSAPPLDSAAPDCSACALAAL
T2 sequence (P37090 1-638 partner): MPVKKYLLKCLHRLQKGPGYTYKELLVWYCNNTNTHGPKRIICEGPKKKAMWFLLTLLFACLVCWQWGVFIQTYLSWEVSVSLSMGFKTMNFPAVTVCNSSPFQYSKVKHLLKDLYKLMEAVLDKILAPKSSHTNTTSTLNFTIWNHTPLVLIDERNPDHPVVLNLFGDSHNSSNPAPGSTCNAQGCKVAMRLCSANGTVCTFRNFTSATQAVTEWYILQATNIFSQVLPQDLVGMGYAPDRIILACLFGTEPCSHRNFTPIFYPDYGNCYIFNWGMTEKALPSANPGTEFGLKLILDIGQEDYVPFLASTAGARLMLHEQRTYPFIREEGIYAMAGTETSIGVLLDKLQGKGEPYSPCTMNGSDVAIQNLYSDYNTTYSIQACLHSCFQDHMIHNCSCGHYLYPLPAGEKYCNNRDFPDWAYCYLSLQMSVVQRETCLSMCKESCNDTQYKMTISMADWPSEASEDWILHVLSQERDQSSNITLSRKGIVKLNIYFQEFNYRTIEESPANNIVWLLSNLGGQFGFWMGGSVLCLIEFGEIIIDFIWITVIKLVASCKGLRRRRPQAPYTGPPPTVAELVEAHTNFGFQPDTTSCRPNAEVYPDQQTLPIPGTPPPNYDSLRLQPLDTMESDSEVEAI
T2 sequence (P37091 1-650 partner): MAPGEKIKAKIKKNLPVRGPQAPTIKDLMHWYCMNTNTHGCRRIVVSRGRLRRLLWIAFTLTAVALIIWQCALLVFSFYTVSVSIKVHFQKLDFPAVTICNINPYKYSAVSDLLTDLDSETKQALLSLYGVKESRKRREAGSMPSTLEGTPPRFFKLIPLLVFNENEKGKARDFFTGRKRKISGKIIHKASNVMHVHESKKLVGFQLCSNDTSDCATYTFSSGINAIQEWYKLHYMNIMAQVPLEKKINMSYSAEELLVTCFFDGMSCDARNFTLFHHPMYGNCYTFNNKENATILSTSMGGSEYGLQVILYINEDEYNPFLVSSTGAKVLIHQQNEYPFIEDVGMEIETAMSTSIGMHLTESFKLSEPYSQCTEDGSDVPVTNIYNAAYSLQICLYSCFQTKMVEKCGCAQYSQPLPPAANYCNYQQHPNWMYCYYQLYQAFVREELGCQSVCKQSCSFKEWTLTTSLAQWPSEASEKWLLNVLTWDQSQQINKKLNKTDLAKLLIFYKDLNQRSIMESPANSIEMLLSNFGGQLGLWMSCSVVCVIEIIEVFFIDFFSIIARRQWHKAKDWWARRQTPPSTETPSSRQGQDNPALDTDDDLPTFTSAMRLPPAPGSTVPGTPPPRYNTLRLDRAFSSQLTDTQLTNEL
Description: Surface biotinylation of αENaC in Xenopus oocytes. The following applies: coexpression with SPLUNC1 in oocytes. As for the experimental part: The effect of SPLUNC1 on the number of ENaC channels in the plasma membrane was tested by expressing SPLUNC1 and αENaC in Xenopus oocytes. After surface biotinylation of αENaC, total lysate was prepared and lysate from 3-4 eggs was separated on a 10% gel.

T1 sequence (P13569 whole entry, species assumed): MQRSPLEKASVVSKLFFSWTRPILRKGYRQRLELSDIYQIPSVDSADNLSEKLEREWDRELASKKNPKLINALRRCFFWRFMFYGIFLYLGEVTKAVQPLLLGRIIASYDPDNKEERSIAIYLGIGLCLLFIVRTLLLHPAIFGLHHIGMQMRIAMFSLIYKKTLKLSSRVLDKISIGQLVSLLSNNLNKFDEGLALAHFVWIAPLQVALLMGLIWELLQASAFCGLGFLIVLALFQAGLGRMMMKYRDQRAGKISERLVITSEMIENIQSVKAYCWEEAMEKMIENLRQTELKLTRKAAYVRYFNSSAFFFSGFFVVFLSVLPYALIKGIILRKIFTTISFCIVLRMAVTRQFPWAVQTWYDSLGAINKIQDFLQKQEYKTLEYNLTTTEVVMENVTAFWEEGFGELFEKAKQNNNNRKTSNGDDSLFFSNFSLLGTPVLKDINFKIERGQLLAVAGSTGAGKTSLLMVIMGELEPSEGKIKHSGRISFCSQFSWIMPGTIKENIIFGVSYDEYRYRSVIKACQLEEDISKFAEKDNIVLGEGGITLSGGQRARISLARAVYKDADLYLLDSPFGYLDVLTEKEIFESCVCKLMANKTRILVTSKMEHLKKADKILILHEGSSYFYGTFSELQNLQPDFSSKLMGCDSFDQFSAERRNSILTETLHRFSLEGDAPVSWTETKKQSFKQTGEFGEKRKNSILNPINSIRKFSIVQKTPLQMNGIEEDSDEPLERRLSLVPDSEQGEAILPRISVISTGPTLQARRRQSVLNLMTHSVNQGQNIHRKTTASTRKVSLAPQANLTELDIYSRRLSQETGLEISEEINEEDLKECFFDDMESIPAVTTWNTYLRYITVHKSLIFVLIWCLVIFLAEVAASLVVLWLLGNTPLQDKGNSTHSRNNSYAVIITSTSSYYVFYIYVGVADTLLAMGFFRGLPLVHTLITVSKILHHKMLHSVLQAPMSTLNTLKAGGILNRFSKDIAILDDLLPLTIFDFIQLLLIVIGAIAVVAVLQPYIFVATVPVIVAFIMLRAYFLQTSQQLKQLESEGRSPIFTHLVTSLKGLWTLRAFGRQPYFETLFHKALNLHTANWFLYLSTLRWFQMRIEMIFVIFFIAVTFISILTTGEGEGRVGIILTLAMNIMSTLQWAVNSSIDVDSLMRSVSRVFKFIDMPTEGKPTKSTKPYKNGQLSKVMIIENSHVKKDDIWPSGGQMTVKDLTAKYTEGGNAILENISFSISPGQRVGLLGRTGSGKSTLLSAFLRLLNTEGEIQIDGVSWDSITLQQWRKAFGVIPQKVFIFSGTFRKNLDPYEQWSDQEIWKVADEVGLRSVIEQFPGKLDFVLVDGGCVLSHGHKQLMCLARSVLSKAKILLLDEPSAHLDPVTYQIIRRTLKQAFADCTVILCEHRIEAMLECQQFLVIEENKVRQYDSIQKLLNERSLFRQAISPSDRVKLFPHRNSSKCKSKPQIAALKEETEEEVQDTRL

B1: SPLUNC1: human SPLUNC1, 256 amino acid secreted PLUNC protein (SEQ ID NO:1); rSPLUNC1 = V5/6His-tagged protein purified from HEK293 media (protein, listed as Homo sapiens)
chain: MFQTGGLIVFYGLLAQTMAQFGGLPVPLDQTLPLNVNPALPLSPTGLAGSLTNALSNGLLSGGLLGILENLPLLDILKPGGGTSGGLLGGLLGKVTSVIPGLNNIIDIKVTDPQLLELGLVQSPDGHRLYVTIPLGIKLQVNTPLVGASLLRLAVKLDITAEILAVRDKQERIHLVLGDCTHSPGSLQISLLDGLGPLPIQGLLDSLTGILNKVLPELVQGNVCPLVNEVLRGLDITLVHDIVNMLIHGLQFVIKV
modifications: V5/6His tag
notes: rSPLUNC1 = V5/6His-tagged protein purified from HEK293 media
As for B1, the “effect on CFTR activity” value in assay [1] (5 ng/ml rSPLUNC1 exposure) and in assay [1] (injection of SPLUNC1 cRNA) was “no inhibitory effect” throughout. Further, in assay [2], the “spontaneous BGAR-MCA cleavage on mucosal surfaces” value is “no significant affect”. Besides, the “plasma membrane ENaC (surface biotinylation)” value in assay [3] is on record as “decreased”.
